Holding throughout (conditions): one partner purified
Experiment [1] concerns the target T1, human C-C motif chemokine receptor-like 2 (CCRL2) isoform b, on HEK-huCCRL2 cells (human, UniProt O00421 1-344).
T1 construct: C-C motif chemokine receptor-like 2 (CCRL2), human, isoform b, codon optimized cDNA; No tag is mentioned for the construct; also called human CCRL2
T1 sequence (looked up): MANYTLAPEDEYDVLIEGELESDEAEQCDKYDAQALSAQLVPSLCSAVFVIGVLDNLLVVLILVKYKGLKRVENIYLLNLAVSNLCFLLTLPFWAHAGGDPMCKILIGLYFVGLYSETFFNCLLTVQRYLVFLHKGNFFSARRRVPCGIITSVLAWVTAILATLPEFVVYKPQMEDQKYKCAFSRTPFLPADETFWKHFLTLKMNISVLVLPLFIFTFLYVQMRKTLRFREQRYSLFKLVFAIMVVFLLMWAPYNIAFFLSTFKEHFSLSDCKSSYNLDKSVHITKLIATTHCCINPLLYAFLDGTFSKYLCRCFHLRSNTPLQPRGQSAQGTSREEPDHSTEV
Nature of the experiment: SPR; live-cell SPR microscopy (SPRm 200); HEK-huCCRL2 cells seeded on collagen-coated gold slides; analyte injected at 150 ul/min, contact 3 min, dissociation 5 min; running buffer PBS + 0.1% BSA; chemerin 10-400 nM; 1:1 binding model; n = 3.

Experiment [2] has as its target T1, human C-C motif chemokine receptor-like …. The experiment is described as follows: flow cytometry on cells; serially diluted biotin-labeled ligand on HEK-huCCRL2, HEK-muCCRL2 or parental HEK cells (2x10^4 cells/well, 384-well), PBS + 0.1% BSA, 4°C 45 min, detected with RRX-streptavidin; MFI normalized to parental HEK cell binding; EC50 from four-parameter fit.
For experiment [3] the target is unchanged. Nature of the experiment: flow cytometry on cells; competition: HEK-huCCRL2 or HEK-muCCRL2 cells incubated with serially diluted unlabeled competitor at 4°C 45 min, then 10 nM biotin-labeled chemerin at 4°C 45 min, RRX-streptavidin; IC50 from four-parameter fit.
The target in experiment [4] is T2, mouse C-C motif chemokine receptor-like 2 (CCRL2) isoform b, on HEK-muCCRL2 cells (mouse, UniProt O35457 1-360).
T2 construct: C-C motif chemokine receptor-like 2 (CCRL2), mouse, printed as isoform b, codon optimized cDNA; also called murine CCRL2
T2 sequence (looked up): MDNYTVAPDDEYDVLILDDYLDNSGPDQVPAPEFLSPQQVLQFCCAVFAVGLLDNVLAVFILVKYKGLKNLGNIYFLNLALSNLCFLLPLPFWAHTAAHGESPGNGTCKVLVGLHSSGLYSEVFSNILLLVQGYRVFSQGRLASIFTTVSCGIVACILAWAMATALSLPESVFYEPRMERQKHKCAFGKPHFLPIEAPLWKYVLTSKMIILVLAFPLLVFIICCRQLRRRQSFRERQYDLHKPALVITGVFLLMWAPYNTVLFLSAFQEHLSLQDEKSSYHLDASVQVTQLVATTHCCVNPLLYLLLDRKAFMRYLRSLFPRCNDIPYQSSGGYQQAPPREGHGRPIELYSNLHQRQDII
Described as above.

Experiment [5] has as its target T2, mouse C-C motif chemokine receptor-like …. Nature of the experiment: flow cytometry on cells; serially diluted biotin-labeled ligand on HEK-huCCRL2, HEK-muCCRL2 or parental HEK cells (2x10^4 cells/well, 384-well), PBS + 0.1% BSA, 4°C 45 min, detected with RRX-streptavidin; MFI normalized to parental HEK cell binding; EC50 from four-parameter fit.

B1: biotin-labeled recombinant active human chemerin (residues 21-157) (ligand, UniProt Q99969 21-157, looked up)
chain: ELTEAQRRGLQVALEEFHKHPPVQWAFQETSVESAVDTPFPAGIFVRLEFKLQQTSCRKRDWKKPECKVRPNGRKRKCLACIKLGSEDKVLGRLVHCPIETQVLREAEEHQETQCLRVQRAGEDPHSFYFPGQFAFS
modifications: biotin (EZ-Link Sulfo-NHS-LC-Biotin, biotin-to-analyte molar ratio 5:1; any reactive primary amine)
notes: active human chemerin, Uniprot entry Q99969, residues 21-157; also called Biotin-chemerin; biotinylated chemerin; not shown: Fc (human IgG1, monovalent) with TEV site, N-terminal, cleaved
Take B1: in experiment [1], the equilibrium dissociation constant (Kd) worked out at 8.55 nM, the koff came to 0.00184 s⁻¹ and the kon is 297000 M⁻¹ s⁻¹. In addition, the EC50 in experiment [2] worked out at 4.2 nM.

B2: recombinant active human chemerin (residues 21-157), unlabeled (ligand, UniProt Q99969 21-157, looked up)
chain: B1 chain
notes: active human chemerin, Uniprot entry Q99969, residues 21-157; Construct is named hIgG1 monovalent Fc-TEV-chemerin; also called label-free chemerin; unlabeled chemerin; source: HEK 293F, transient, purified (Protein A, TEV cleavage, Protein A and Ni-NTA removal, Superdex 75 SEC); not shown: Fc (human IgG1, monovalent) with TEV site, N-terminal, cleaved
Regarding B2, in experiment [1], the Kd was 5.49 nM, the koff is 0.00116 s⁻¹ and the kon came to 311000 M⁻¹ s⁻¹. This molecule also gave an IC50 in experiment [3] of 7.55 nM.

B3: recombinant active mouse chemerin (residues 21-156), unlabeled (ligand, UniProt Q9DD06 21-156, looked up)
chain: EPELSETQRRSLQVALEEFHKHPPVQLAFQEIGVDRAEEVLFSAGTFVRLEFKLQQTNCPKKDWKKPECTIKPNGRRRKCLACIKMDPKGKILGRIVHCPILKQGPQDPQELQCIKIAQAGEDPHGYFLPGQFAFS
notes: active mouse chemerin, Uniprot entry Q9DD06, residues 21-156; Construct is named hIgG1 monovalent Fc-TEV-chemerin; also called murine chemerin; unlabeled murine chemerin; source: HEK 293F, transient, purified (Protein A, TEV cleavage, Protein A and Ni-NTA removal, Superdex 75 SEC); not shown: Fc (human IgG1, monovalent) with TEV site, N-terminal, cleaved
In the case of B3, the IC50 in experiment [4] was 21.1 nM.

B4: biotin-labeled recombinant active mouse chemerin (residues 21-156) (ligand, UniProt Q9DD06 21-156, looked up)
chain: B3 chain
modifications: biotin (EZ-Link Sulfo-NHS-LC-Biotin, biotin-to-analyte molar ratio 5:1; any reactive primary amine)
notes: active mouse chemerin, Uniprot entry Q9DD06, residues 21-156; also called biotinylated murine chemerin; biotin-labeled murine chemerin; not shown: Fc (human IgG1, monovalent) with TEV site, N-terminal, cleaved
Take B4: the EC50 in experiment [5] is 143 nM.

(Values after publication PMC9858354, “Studies with neutralizing antibodies suggest CXCL8-mediated neutrophil activation is independent of C-C motif chemokine receptor-like 2 (CCRL2) ligand binding function” (PLOS ONE, 2023).)
